According to the supplement of paper PMC10567573:

B1: CCND1 (parent)
chain: PEAEENKQIIRKHAQTFVALCATD
B2: WDFY2 (parent)
chain: FWNFKQMWDSKKIGLRQHHCRKCG

Variants of: B1
Test: protein stability index of a GFP-peptide fusion (GPS, HEK-293T) (PSI 1-6); higher = more stable
Conditions: c terminus: a fixed tail appended
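Further: lentivirally expressed fusions sorted by FACS into six bins by GFP to DsRed ratio, PSI derived from sequencing read proportions per bin multiplied by bin number.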

Protein stability index, by site and new letter:
A14: H 2.62 | Q 2.28 | K 2.38 | D 3.71 | Y 2.44 | V 2.3 | P 2.64 | E 3.45 | I 2.29 | F 2.79 | N 3.77 | R 1.85 | C 2.72 | L 2.18 | M 2.97 | G 3.71 | S 2.96 | T 2.33 | W 1.94
T16: P 4.62 | I 3.35 | H 4.35 | S 3.2 | W 2.85 | F 3.37 | C 3.55 | R 4.25 | Q 4.13 | K 4.7 | M 3.86 | A 4.71 | Y 3.58 | G 3.88 | E 5.27 | L 3.51 | D 4.81 | V 3.85 | N 4.61
A22: P 4.49 | M 2.67 | L 2.72 | Y 3.02 | Q 2.91 | V 2.52 | T 2.87 | C 2.15 | K 3.66 | G 3.37 | D 3.87 | I 2.95 | N 4.43 | H 3.38 | W 2.09 | F 2.63 | R 3.16 | S 3.19 | E 2.96
I10: Y 2.29 | W 3.22 | T 3.04 | S 2.53 | V 3.39
D24: S 3.9 | Y 2.89 | W 2.39 | N 3.88 | M 2.93 | I 2.15 | Q 3.8 | G 2.85 | K 3.84 | L 2.79 | H 2.77 | T 3.35 | V 2.54 | F 2.23 | C 2.71 | A 3.27 | P 3.63 | E 2.33 | R 2.7
V18: D 5.34 | L 4.49 | R 3.87 | P 5.04 | M 4.35 | E 5.09 | H 4.7 | N 4.61 | T 3.96 | A 3.77 | W 3.76 | C 3.72 | G 4.55 | F 4.28 | I 4.42 | Y 3.75 | Q 4.29 | S 4.49 | K 5.09
Q15: V 2.84 | F 2.07 | Y 2.01 | N 3.41 | G 3.11 | I 2.33 | T 3.18 | P 3.48 | D 3.66 | S 3.52 | W 2.16 | R 2.32 | A 3.45 | K 2.04 | H 2.97 | L 2.49 | C 2.84 | M 2.59 | E 3.63
T23: F 1.75 | C 2.64 | P 3.07 | E 2.21 | G 2.64 | N 2.94 | I 2.38 | K 2.92 | Q 2.54 | A 2.87 | H 2.64 | W 2.63 | S 2.48 | D 3.22 | L 2.35 | V 2.87 | Y 2.47 | R 2.48 | M 2.94
C21: A 4.05 | I 1.98 | Q 4.95 | P 4.7 | S 4.07 | N 5.27 | L 1.66 | D 5.22 | E 4.9 | H 4.37 | K 5.07 | R 4.86 | Y 2.96 | G 5.04 | T 2.78 | V 2.24 | M 3.28 | W 3.59 | F 3.75
H13: Q 3.4 | N 2.53 | E 3.7 | F 2.55 | K 2.02 | S 2.54 | T 3.07 | M 2.89 | Y 2.59 | D 4.02 | A 3.11 | I 1.87 | C 2.65 | P 3.17 | R 2.9 | W 2.25 | V 3.02 | L 2.81 | G 3.84
R11: D 4.11 | S 2.62 | V 3.14 | K 2.9 | G 3.16 | W 2.6 | T 3.47 | L 3.25 | I 2.84 | F 2.64 | C 2.94 | E 3.76 | Q 3.61 | Y 2.88 | H 3.33 | M 2.71 | N 3.59 | P 3.28 | A 3.58
A19: P 4.92 | Y 3.64 | F 3.08 | E 2.49 | L 2.59 | W 3.06 | K 3.54 | C 3.3 | D 2.6 | H 3.32 | N 2.92 | V 4.04 | I 2.85 | Q 2.5 | M 2.55 | T 4.06 | G 2.91 | S 2.89 | R 3.96
K12: S 2.29 | V 3.13 | F 2.51 | T 3.06 | M 2.73 | P 4.03 | I 2.39 | D 3.66 | N 3.25 | W 2.34 | G 3.65 | R 2.67 | H 3.47 | Y 3.49 | A 3.83 | L 2.77 | E 4.58 | C 2.76 | Q 3.9
F17: W 2.11 | S 4.67 | T 5.23 | M 5.03 | K 5.34 | H 4.86 | V 4.33 | L 4.47 | G 5.43 | I 4.84 | A 4.99 | P 5.15 | Y 3.27 | C 4.84 | R 4.54 | N 5.41 | D 5.61 | Q 4.99 | E 5.24
L20: P 4.79 | V 2.87 | E 4.8 | I 3.33 | G 4.71 | Y 2.66 | S 4.43 | N 3.84 | D 4.62 | T 4.04 | A 3.3 | W 4.15 | H 3.21 | M 2.11 | F 4.21 | K 2.59 | Q 2.85 | C 3.82 | R 2.09

Variants of: B2
Test: as above
Conditions: c terminus: a fixed tail appended

Protein stability index of substitutions, site by site:
N3: P 1.85 | E 2.12
G24: C 2.4 | E 2.13 | N 1.67 | T 2.7
K11: I 2.5 | Q 2.54
I13: G 1.99 | W 1.67 | E 2.28 | M 2.29
M7: K 1.69 | F 2.09
H18: M 1.38
W2: I 2.23 | Y 2.25 | L 1.93
R16: H 2.06 | F 3.39 | L 1.76 | P 3.42
L15: D 2.17
K5: C 2.66 | Y 1.24
C23: H 2.24
C20: S 2.49 | T 2.28 | P 1.94 | R 2.37 | N 2.31 | K 2.15
R21: G 1.85 | F 1.76 | I 1.29
K12: V 2.42 | C 2.79
G14: Q 1.32 | L 2 | S 3.27 | Y 2.53 | C 2.45
F1: C 2.65 | K 2.11 | W 2.25
F4: Q 2.41 | D 2.27 | C 2.36 | P 1.93
W8: P 2.16 | A 2.12 | C 2.34 | D 3
D9: P 2.43 | K 2.05
H19: D 2.11 | Y 1.76
Q17: Y 2.12
Q6: F 1.53 | D 1.91 | G 2.79 | M 1.93 | L 2.03
